Biological target: GST-His-ZTL (Arabidopsis thaliana, UniProt Q94BT6 1-609, RED-NHS 2nd Generation fluorescent label (in the MST assay only))
Experiment: MST

GST-His-ZTL, sequence (Q94BT6 whole entry): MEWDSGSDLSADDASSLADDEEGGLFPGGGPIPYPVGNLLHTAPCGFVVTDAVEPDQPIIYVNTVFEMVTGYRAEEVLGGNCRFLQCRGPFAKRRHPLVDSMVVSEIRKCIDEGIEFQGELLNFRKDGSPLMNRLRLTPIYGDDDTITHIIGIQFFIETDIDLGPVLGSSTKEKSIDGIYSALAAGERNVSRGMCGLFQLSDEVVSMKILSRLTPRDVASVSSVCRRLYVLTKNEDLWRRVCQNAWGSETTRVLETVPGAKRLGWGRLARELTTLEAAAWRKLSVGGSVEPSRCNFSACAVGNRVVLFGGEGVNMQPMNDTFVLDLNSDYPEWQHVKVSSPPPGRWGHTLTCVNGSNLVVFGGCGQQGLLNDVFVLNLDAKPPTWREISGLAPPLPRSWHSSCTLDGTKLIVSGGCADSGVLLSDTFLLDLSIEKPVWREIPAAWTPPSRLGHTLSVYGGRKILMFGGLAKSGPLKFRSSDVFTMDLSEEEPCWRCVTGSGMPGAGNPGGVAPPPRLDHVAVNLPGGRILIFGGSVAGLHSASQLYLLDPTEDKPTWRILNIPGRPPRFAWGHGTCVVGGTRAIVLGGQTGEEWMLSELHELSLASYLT

B1: His-CHE (natural protein)
chain: not shown
Kd: 0.19 µM
